Results from patent US20180155413A1 (AstraZeneca / MedImmune, published 2018).

B1: FY1/39 BiS1 100/44 (bispecific antibody)
light: DIQMTQSPSSVSASVGDRVTITCRASQDISTWLAWYQQKPGKAPKLLIYAASSLQSGVPSRFSGSGSGTDFTLTISSLQPEDFATYFCQQANSFPPTFGCGTKLEIKGGGGSGGGGSGGGGSGGGGSEVQLVVSGGGLVKPGGSLRLSCAASGLSFLNAWMSWVRQAPGKCLEWVGRIKSNTDGGTTDYAAPVKGRFSISRDDSKNMLFLHMSSLRTEDTAVYYCATDGPYSDDFRSGYAARYRYFGMDVWGQGTTVTVSSGGGGSGGGGSDIQMTQSPSSLSASVGDRVTITCRTSQSLSSYLHWYQQKPGKAPKLLIYAASSLQSGVPSRFSGSGSGTDFTLTISSLQPEDFATYYCQQSRTFGQGTKVEIKRTVAAPSVFIFPPSDEQLKSGTASVVCLLNNFYPREAKVQWKVDNALQSGNSQESVTEQDSKDSTYSLSSTLTLSKADYEKHKVYACEVTHQGLSSPVTKSFNRGEC
heavy: not shown
B2: FY1 IgG (antibody, V domains shown)
VH: QVQLQESGPGLVKPSQTLSLTCAISGDSVSSNNAVWNWIRQSPSRGLEWLGRTYYRSKWYNDYAESVKSRITVNPDTSKNQFSLHLKSVTPEDTAVFYCVRSGHITVFGVNVDAFDMWGQGTMVTVSS
VL: DIQMTQSPSSLSASVGDRVTITCRTSQSLSSYLHWYQQKPGKAPKLLIYAASSLQSGVPSRFSGSGSGTDFTLTISSLQPEDFATYYCQQSRTFGQGTKVEIK
B3: GL20/39FTL BiS4 100/44 (bispecific antibody)
light: DIQMTQSPSSLSASVGDRVTITCRTSQSLSSYTHWYQQKPGKAPKLLIYAASSRGSGVPSRFSGSGSGTDFTLTISSLQPEDFATYYCQQSRTFGQGTKVEIK
heavy (part 1 of 2): QVQLQQSGPGLVKPSQTLSLTCAISGDSVSSYNAVWNWIRQSPSRGLEWLGRTYYRSGWYNDYAESVKSRITINPDTSKNQFSLQLNSVTPEDTAVYYCARSGHITVFGVNVDAFDMWGQGTMVTVSS
heavy (part 2 of 2): DIQMTQSPSSVSASVGDRVTITCRASQDISTWLAWYQQKPGKAPKLLIYAASSLQSGVPSRFSGSGSGTDFTLTISSLQPEDFATYYCQQANSFPPTFGCGTKLEIKGGGGSGGGGSGGGGSGGGGSEVQLVESGGGLVKPGGSLRLSCAASGFTFLNAWMSWVRQAPGKCLEWVGRIKSNTDGGTTDYAAPVKGRFTISRDDSKNTLYLQMSSLKTEDTAVYYCTTDGPYSDDFRSGYAARYRYFGMDVWGQGTTVTVSS
B4: GL20 IgG (antibody, V domains shown)
VH: QVQLQQSGPGLVKPSQTLSLTCAISGDSVSSYNAVWNWIRQSPSRGLEWLGRTYYRSGWYNDYAESVKSRITINPDTSKNQFSLQLNSVTPEDTAVYYCARSGHITVFGVNVDAFDMWGQGTMVTVSS
VL: DIQMTQSPSSLSASVGDRVTITCRTSQSLSSYTHWYQQKPGKAPKLLIYAASSRGSGVPSRFSGSGSGTDFTLTISSLQPEDFATYYCQQSRTFGQGTKVEIK
B5: FBD94 IgG (antibody, V domains shown)
VH: EVQLVESGGGLVQPGRSLRLSCAVSGFIFEDYAINWVRQAPGKGLEWVSIISWDSGRIGYADSVRGRFTISRDNAKNSSFLQMNSLRPEDTAVYYCVKDMLAYYYDGSGIRYNLYGMDVWGQGTTVTVSS
VL: EIVLTQSPATLSLSPGERATLSCRASRSITTFLAWYQQKPGQAPRLLIYDASNRATGVPARFSGSGSGTDFTLTINSLEPDDFAIYYCQQRDHWPPIFGQGTRLEIK
B6: FBC39 IgG (antibody, V domains shown)
VH: EVQLVVSGGGLVKPGGSLRLSCAASGLSFLNAWMSWVRQAPGKGLEWVGRIKSNTDGGTTDYAAPVKGRFSISRDDSKNMLFLHMSSLRTEDTAVYYCATDGPYSDDFRSGYAARYRYFGMDVWGQGTTVTVSS
VL: DIQMTQSPSSVSASVGDRVTITCRASQDISTWLAWYQQKPGKAPKLLIYAASSLQSGVPSRFSGSGSGTDFTLTISSLQPEDFATYFCQQANSFPPTFGQGTKLEIK
B7: FY1/94 BiS2 100/44 (bispecific antibody)
light: DIQMTQSPSSLSASVGDRVTITCRTSQSLSSYLHWYQQKPGKAPKLLIYAASSLQSGVPSRFSGSGSGTDFTLTISSLQPEDFATYYCQQSRTFGQGTKVEIKRTVAAPSVFIFPPSDEQLKSGTASVVCLLNNFYPREAKVQWKVDNALQSGNSQESVTEQDSKDSTYSLSSTLTLSKADYEKHKVYACEVTHQGLSSPVTKSFNRGEC
heavy: not shown
B8: FY1/39 BiS4 100/44 (bispecific antibody)
light: DIQMTQSPSSLSASVGDRVTITCRTSQSLSSYLHWYQQKPGKAPKLLIYAASSLQSGVPSRFSGSGSGTDFTLTISSLQPEDFATYYCQQSRTFGQGTKVEIKRTVAAPSVFIFPPSDEQLKSGTASVVCLLNNFYPREAKVQWKVDNALQSGNSQESVTEQDSKDSTYSLSSTLTLSKADYEKHKVYACEVTHQGLSSPVTKSFNRGEC
heavy: not shown
B9: FY1/39 BiS2 100/44 (bispecific antibody)
light: DIQMTQSPSSLSASVGDRVTITCRTSQSLSSYLHWYQQKPGKAPKLLIYAASSLQSGVPSRFSGSGSGTDFTLTISSLQPEDFATYYCQQSRTFGQGTKVEIKRTVAAPSVFIFPPSDEQLKSGTASVVCLLNNFYPREAKVQWKVDNALQSGNSQESVTEQDSKDSTYSLSSTLTLSKADYEKHKVYACEVTHQGLSSPVTKSFNRGEC
heavy: not shown
B10: FY1/39 BiS3 100/44 (bispecific antibody)
light: DIQMTQSPSSLSASVGDRVTITCRTSQSLSSYLHWYQQKPGKAPKLLIYAASSLQSGVPSRFSGSGSGTDFTLTISSLQPEDFATYYCQQSRTFGQGTKVEIKRTVAAPSVFIFPPSDEQLKSGTASVVCLLNNFYPREAKVQWKVDNALQSGNSQESVTEQDSKDSTYSLSSTLTLSKADYEKHKVYACEVTHQGLSSPVTKSFNRGEC
heavy: not shown
B11: FY1/94 BiS4 100/44 (bispecific antibody)
light: DIQMTQSPSSLSASVGDRVTITCRTSQSLSSYLHWYQQKPGKAPKLLIYAASSLQSGVPSRFSGSGSGTDFTLTISSLQPEDFATYYCQQSRTFGQGTKVEIKRTVAAPSVFIFPPSDEQLKSGTASVVCLLNNFYPREAKVQWKVDNALQSGNSQESVTEQDSKDSTYSLSSTLTLSKADYEKHKVYACEVTHQGLSSPVTKSFNRGEC
heavy: not shown
B12: GL20/39 BiS4 100/44 (bispecific antibody)
light: DIQMTQSPSSLSASVGDRVTITCRTSQSLSSYTHWYQQKPGKAPKLLIYAASSRGSGVPSRFSGSGSGTDFTLTISSLQPEDFATYYCQQSRTFGQGTKVEIKRTVAAPSVFIFPPSDEQLKSGTASVVCLLNNFYPREAKVQWKVDNALQSGNSQESVTEQDSKDSTYSLSSTLTLSKADYEKHKVYACEVTHQGLSSPVTKSFNRGEC
heavy: not shown
B13: FY1/39 BiS4 43/105 (bispecific antibody)
light: DIQMTQSPSSLSASVGDRVTITCRTSQSLSSYLHWYQQKPGKAPKLLIYAASSLQSGVPSRFSGSGSGTDFTLTISSLQPEDFATYYCQQSRTFGQGTKVEIKRTVAAPSVFIFPPSDEQLKSGTASVVCLLNNFYPREAKVQWKVDNALQSGNSQESVTEQDSKDSTYSLSSTLTLSKADYEKHKVYACEVTHQGLSSPVTKSFNRGEC
heavy: not shown
B14: GL20/39FTL BiS4 43/105 (bispecific antibody)
light: DIQMTQSPSSLSASVGDRVTITCRTSQSLSSYTHWYQQKPGKAPKLLIYAASSRGSGVPSRFSGSGSGTDFTLTISSLQPEDFATYYCQQSRTFGQGTKVEIKRTVAAPSVFIFPPSDEQLKSGTASVVCLLNNFYPREAKVQWKVDNALQSGNSQESVTEQDSKDSTYSLSSTLTLSKADYEKHKVYACEVTHQGLSSPVTKSFNRGEC
heavy: not shown

These binders were tested against recombinant HA derived from A/California/07/2009 H1N1 (influenza A virus, UniProt P26140 18-529) (assay: ELISA, rHA coated on plate).
B1 gave an EC50 of 6.85 nM.
B2 showed an EC50 of 2.15 nM.
In the case of B3, the EC50 is reported as 0.99 nM.
B4 showed an EC50 of 1.99 nM.
B5: no binding.
B6: no binding.
In the case of B7, the EC50 is reported as 6.83 nM.
Work on B8 yielded an EC50 of 1.19 nM.
Binder B9 has an EC50 of 3.97 nM.
B10 gave an EC50 of 1.52 nM.
B11 showed an EC50 of 1.53 nM.
B12 was tested, and the EC50 was 0.95 nM.
Work on B13 yielded an EC50 of 0.78 nM.
Binder B14 has an EC50 of 0.86 nM.
